Laboratory results from IntAct's records for PubMed 16247757.

B1: Lamina-associated polypeptide 2, isoform alpha (Homo sapiens), P42166 (parent)
chain: MPEFLEDPSVLTKDKLKSELVANNVTLPAGEQRKDVYVQLYLQHLTARNRPPLPAGTNSKGPPDFSSDEEREPTPVLGSGAAAAGRSRAAVGRKATKKTDKPRQEDKDDLDVTELTNEDLLDQLVKYGVNPGPIVGTTRKLYEKKLLKLREQGTESRSSTPLPTISSSAENTRQNGSNDSDRYSDNEEGKKKEHKKVKSTRDIVPFSELGTTPSGGGFFQGISFPEISTRPPLGSTELQAAKKVHTSKGDLPREPLVATNLPGRGQLQKLASERNLFISCKSSHDRCLEKSSSSSSQPEHSAMLVSTAASPSLIKETTTGYYKDIVENICGREKSGIQPLCPERSHISDQSPLSSKRKALEESESSQLISPPLAQAIRDYVNSLLVQGGVGSLPGTSNSMPPLDVENIQKRIDQSKFQETEFLSPPRKVPRLSEKSVEERDSGSFVAFQNIPGSELMSSFAKTVVSHSLTTLGLEVAKQSQHDKIDASELSFPFHESILKVIEEEWQQVDRQLPSLACKYPVSSREATQILSVPKVDDEILGFISEATPLGGIQAASTESCNQQLDLALCRAYEAAASALQIATHTAFVAKAMQADISQAAQILSSDPSRTHQALGILSKTYDAASYICEAAFDEVKMAAHTMGNATVGRRYLWLKDCKINLASKNKLASTPFKGGTLFGGEVCKVIKKRGNKH

Variants of: B1
Conditions: with lmna_human LMNA

Row | effect of a mutation on the interaction | Variant
1 | decreasing interaction | R690C
